# Test results as given in US20160137746A1, “METHODS FOR TREATING HIGH CARDIOVASCULAR RISK PATIENTS WITH HYPERCHOLESTEROLEMIA” (Sanofi Biotechnology, priority 2014, published 2016).
# Tested on: high cardiovascular risk patients with hypercholesterolemia
# Assay: ODYSSEY COMBO I: safety (TEAEs, adjudicated CV events, laboratory PCSA, low LDL-C)
# [1] = alirocumab patients with LDL-C <25 mg/dL
# Description: Safety was assessed through adverse event (AE) reporting (including adjudicated cardiovascular events), laboratory analyses, and vital signs measurement. Since the LDL-C-lowering effects of PCSK9 inhibition on top of a statin are unknown, a number of AEs were defined as being of special interest and were monitored, including alanine aminotransferase abnormalities, allergic events, hemolytic anemia, pregnancy, overdose with study drug, neurologic events, ophthalmic events, and local injection site reactions. AEs were determined to be of special interest based on review of previous clinical trials, correspondence with regulatory authorities and the Data Monitoring Committee, the use of a monoclonal antibody in this study, and the route of drug administration.
# AEs (including adjudicated cardiovascular events), laboratory parameters, and vital signs were reported descriptively, based on the safety population (all randomized patients who received at least 1 dose or partial dose of study treatment). The safety analysis focused on the treatment-emergent AE period defined as the time from the first double-blind dose to the last double-blind dose of the investigational product +70 days (10 weeks).
# The safety population included all randomized patients who received at least one dose or part of a dose of the double-blind IMP.
# Safety analyses were descriptive, performed on the safety population according to treatment actually received. For analysis of TEAE and PCSA, the safety analysis focused on the TEAE period defined as the time from the first dose of double-blind IMP up to 70 days after the last double-blind injection.
substance,measurement,setting,value
"Alirocumab: human anti-PCSK9 antibody; HCVR SEQ ID NO:1, LCVR SEQ ID NO:6; CDRs SEQ ID NOs 2/3/4/7/8/10",Ischemic events (within SOC Cardiac disorders),TEAE period,9 events
same,SAEs reported,TEAE period,12.6%
same,SOC Cardiac disorders,TEAE period,8.2%
same,SOC Metabolism and nutrition disorder,TEAE period,10.1%
same,SOC eye disorders,TEAE period,4.3%
same,Arthralgia rate,alirocumab group as a whole,3.9%
same,Invertebral disc protusion rate,alirocumab group as a whole,1.0%
same,Myalgia rate,alirocumab group as a whole,3.4%
same,Osteoarthritis rate,alirocumab group as a whole,3.9%
same,Arthralgia rate,[1],5.1%
same,Invertebral disc protusion rate,[1],5.1%
same,Myalgia rate,[1],7.7%
same,Osteoarthritis rate,[1],7.7%
same,Patients with cardiovascular events that were positively adjudicated,as stated in text b249 (5 patients),2.4%
same,PCSA: decrease of hemoglobin from baseline ≧20 g/L,in vivo,6.3%
same,PCSA: new cases of erythrocytes values ≧6 Tera/L,in vivo,2.5%
same,Patients with impaired glucose control at baseline classified as diabetic in the TEAE period,in vivo,7.4%
same,Patients with two consecutive calculated LDL-C values <25 mg/dL,in vivo,19.5%
same,Safety in patients with two consecutive calculated LDL-C <25 mg/dL,in vivo,No particular safety concern
same,"Asthma (general allergic reactions), cases",including 2 serious cases,5 (2.4%) No. (%)
same,Deaths during treatment period,myocardial infarction and pulmonary embolism,1.0%
same,Tolerability,overall results,generally well tolerated
same,"Time to the first calculated LDL-C value <15 mg/dL, mean (SD)",safety population,12.51 (6.83) weeks
same,"Time to the first calculated LDL-C value <15 mg/dL, median",safety population,13.57 weeks
same,"Time to the first calculated LDL-C value <25 mg/dL, mean (SD)",safety population,11.48 (9.72) weeks
same,"Time to the first calculated LDL-C value <25 mg/dL, median",safety population,8.00 weeks
same,Any patients with treatment emergent cardiovascular events confirmed by adjudication,"safety population, to week 52",−6 (2.9) No. (%) of patients
same,Arthralgia (TEAE preferred term),"safety population, to week 52",8 (3.9) No. (%) of patients
same,"Congestive heart failure requiring hospitalization, adjudicated","safety population, to week 52",0 No. (%) of patients
same,"Coronary heart disease death (including undetermined cause), adjudicated","safety population, to week 52",1 (0.5) No. (%) of patients
same,Dizziness (TEAE preferred term),"safety population, to week 52",11 (5.3) No. (%) of patients
same,"Fatal and non-fatal ischemic stroke (including stroke not otherwise specified), adjudicated","safety population, to week 52",−2 (1.0) No. (%) of patients
same,Injection site reaction (TEAE preferred term),"safety population, to week 52",11 (5.3) No. (%) of patients
same,"Ischemia driven coronary revascularization procedure, adjudicated","safety population, to week 52",3 (1.4) No. (%) of patients
same,Local injection site reactions (AE of special interest),"safety population, to week 52",11 (5.3) No. (%) of patients
same,Nasopharyngitis (TEAE preferred term),"safety population, to week 52",15 (7.2) No. (%) of patients
same,Neurocognitive disorders (AE of special interest),"safety population, to week 52",0 (0) No. (%) of patients
same,Neurological events (AE of special interest),"safety population, to week 52",5 (2.4) No. (%) of patients
same,Non-cardiac chest pain (TEAE preferred term),"safety population, to week 52",2 (1.0) No. (%) of patients
same,"Non-fatal myocardial infarction, adjudicated","safety population, to week 52",1 (0.5) No. (%) of patients
same,Potential general allergic reaction events (AE of special interest),"safety population, to week 52",18 (8.7) No. (%) of patients
same,Sinusitis (TEAE preferred term),"safety population, to week 52",11 (5.3) No. (%) of patients
same,TEAE leading to death,"safety population, to week 52",2 (1.0) No. (%) of patients
same,TEAEs,"safety population, to week 52",157 (75.8) No. (%) of patients
same,TEAEs leading to discontinuation,"safety population, to week 52",13 (6.3) No. (%) of patients
same,Treatment-emergent SAEs,"safety population, to week 52",26 (12.6) No. (%) of patients
same,Local injection site reactions (AE of special interest),"safety population, to week 52, listed as alirocumab",11 (5.3%) No. (%) of patients
